From the nanobody polyreactivity screen of Harvey et al. (2022)

Assay: yeast display, Sf9 membrane polyspecificity reagent, FACS + sequencing; frameworks hold sequencing errors
In short: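 Galactose induction of a Saccharomyces cerevisiae BJ5465 synthetic nanobody display library ran 36–48 hours. The cells were then stained for 1 hour at 4 °C with 10% biotinylated, detergent-solubilized Sf9 membrane reagent, pulled down on streptavidin microbeads and FACS-sorted into low and high (top ~1%) gates on expression and reagent-binding fluorescence. Labels for polyreactivity follow the gate of origin.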

QVQLVESGGGLVQAGGSLRLSCAASGSIFVLYAMGWYRQAPGKERELVAAIDFGGGSTYYADSVKGRFTISRDNAKNTVYLQMNSLKPEYTAVYYCAAELYYTYRWYDYWGQGTQVTVSS
polyreactivity (PSR sort gate): high polyreactivity

QVQLVESGGGLVQAGGSLPLSCAASGITLYLYVMGWYRQAPGKEREFVAAIRWAGGSTYYADSVKGRFTISRDNAKNTVYLHMNSLKPEDTAVYYCNAEVYGYYSARRPGYEYWGQGTQVTVSS
polyreactivity (PSR sort gate): low polyreactivity

QVQLVESGGGLVQAGGSLRLSCAASGSIFGKYTMGWYRQAPGKERELVAAISRSGSSTYYADSVKGRFTISRDNAKNTVYLQMNSLKPEDTAVYYCAAKFYYGVTSKFESWGQGTQVTVSS
polyreactivity (PSR sort gate): high polyreactivity

QVQLVESGGGLVQAGGSLRLICAASGSTFLKYAMGWYRQAPGKERELVAAITYRGGTTYYADSVKGRFTISRDNAKNTVYLQMNSLKPEDTAVYYCAARGYKRMGYWGQGTQVTVSS
polyreactivity (PSR sort gate): high polyreactivity

QVQLEESGGGLVQAGGSLRLSCAASGSTFDYYARGWYRPAPGKERELVAVISSGGSTYYADSVKGRFTISRDNAKNTVYLQMNSLKPEDTAVYYCAAETYYYVLPHWYKYKYGYWGQGTQVTVSS
polyreactivity (PSR sort gate): low polyreactivity

QVQLVESGGGLVQAGGSLRLSCAASGRIFGRYAMGWYRQAPGKERELVAVISSGGSTYYADSVKGRFTISRDNAKNTVYLQMNSLKPEDTAVYYCAAVNRGGYDYWGQGTQVTVSS
polyreactivity (PSR sort gate): low polyreactivity

QVKLVESGGGLVQAGGSLRLSCAASGSTFAGTAMGWYRQAPGKEREMVAAISWNTGSTYADSVKGRFTISRDNAKNTVYLQMNSLKPEDTAVYYCAADRSHAYYRKNRVDYWGQGTQVTVSS
polyreactivity (PSR sort gate): low polyreactivity

QVQLVESGGGLVQAGGSLRLSCAASGLTFAINTMGWYRQAPGKERELVAAITGSGGSTYYADSVKGRFTISRDNAKNTVYLQMNSLKPEDTAVYYCAAELLYVQGYAMDYWGQGTQVTVSS
polyreactivity (PSR sort gate): low polyreactivity

QVQLVESGGGLVQAGGSLRLSCAASGITFYRNAMGWYRQAPGKEREFVAAITSSGGSTYYADSVKGRFTISRDNAKNTVYLQMNSLKPEDTAVYYCRPGRWRVSHKYDYWGQGTQVTVSS
polyreactivity (PSR sort gate): high polyreactivity

QVQLVESGGGLVLAGGSLRLSCAASGSNFSPNAMGWYRKAPGKERELVAAITYRGANTYYADSVKGRFTISRDYAKNTVYFLMNSLKPEDTAVYFCAAEYAYHHVGFGYWGQGTQVTVSS
polyreactivity (PSR sort gate): low polyreactivity

QDQLVESGGGLVQAGGSLRLSCAASGLTFGRYAMGWYRQAPGKERELVAAITWNGDGTYYADSVKGRFTISRDNAKNTVYLQMNSQKPEDSAVFYCAADYYTYLYGRYNYWGQGTQVTVSS
polyreactivity (PSR sort gate): low polyreactivity

QVQLVETGGGLVQAGGSLRLSCAASGFIFIHNAMGWYRQAPGKERELVAAISYSGGSTYYADSVKGRFTISRDNEKNTVYLQMNSLKPEDTAVYYCAARGALHHWYRYDDWGQGTQVTVSS
polyreactivity (PSR sort gate): low polyreactivity

QVPLVESGGGLVQAGGSLRLSCAASGSIFTVYAVGWYRQAPGKERELVASIRFSSGRTYYADSVKGRFTISRDNAKNTVYLHMTSLKPEDTAVYYCAAETVSWYRYYYWGQGTQVTVSS
polyreactivity (PSR sort gate): high polyreactivity

QDQLVESGGGLVQAGASLRLSCPASGFLFESNAMGWYRQAPGKERELVAAITKRGGSTYYADSVKGRFTISRDNAKNTVYLQMKSLKPEDTAVYYCARYSSRYSSGYDYWGQGTQVTVSS
polyreactivity (PSR sort gate): high polyreactivity

QVQLVESGGGLVQAGGSLRLSCAASVSTFPQYAMGWYRQAPGKERELVAAISWSGGRTYYADSVKGRFTISRDNAKNTVYLQMNSLKPEDTAVFYCAATYPGQYGYNYWGQGTQVTVSS
polyreactivity (PSR sort gate): high polyreactivity

QVQRVDSGGGLVQAGGSLRLICAASGFTFKYYAMGWYRQAPGKERELVAAITRGGDTYYADSVMGRFTISRDNAKNTVYLQMNRLKPEETAVYYCNTASDKRAFDYWGQGTQLTVSS
polyreactivity (PSR sort gate): low polyreactivity

QVQLVESGGGLVQAGGSLRLSCAASGSIFSHNVMVWYRQAPGKERELVAAISGGGGRTYYADSVKGRFTISRDNAKNTVYLQMNSLKAEDTAVYYCNAYVGLSEGDYWGQGTQVSVSS
polyreactivity (PSR sort gate): high polyreactivity

QVQLVESGGGLVQAGGSLRLSCAASGRIFKNNTMGWYRQAPGKERELVAAISCSGGSTYYADSVKGRFTISRDNAKNTVYLQINSLKPEDTAVYYCATTYEPNGGIEDDYWGQGTQVTVSS
polyreactivity (PSR sort gate): low polyreactivity

QVQIVESGGGLVQAGGSLRLSCAAYGSIFQPYAMGWYRQAPGKERELVAAITNGGSTYYADSVKGRFTISRDNAKNTVYLQMNSLKPEDTGVYYCAADVQSSHEYDYWGKGTQVTVSS
polyreactivity (PSR sort gate): low polyreactivity

QVQLVESGGGLVQAGGSLRLSCAASGSIFTQYAMGWYRQAPGKERELVAAITSSGGSTHYADSVKGRFTISRDNAKNTVYLQMNSLKPEDTAVYYCAVPSFVYATFPYGYWGQGTQVTVSS
polyreactivity (PSR sort gate): low polyreactivity

QVQLVESGGGLVQAGGSLRLSCAACGRTFRRNAMGWYREAPGKERELVAAISTSGGRTYYADSVKGRFTISRDNAKNTVYLQMNSLKPEDTAVYYCAADIPQTDGYWGQGTQVTVSS
polyreactivity (PSR sort gate): low polyreactivity

QVQLVESGGGLVQAGGSLRLSCAASGRIFKLYAMGWYRQAPGKERELVASITWGGGSTNYADSVKGRFTISRDNAKNTVYLQMNSLKPEDTAVYYCAAVYSKYAVFWEYDYWGQGTQVTVSS
polyreactivity (PSR sort gate): low polyreactivity

QVQLVESGGGLVQAGGSLRLSCAASGRIFQYYAMGWYRQAPGKERELVAAISRGGSTNYADSVKGRFTISRDNAKNTVYCQMNSLIPVDTAVYYCAGDEYRYYFFRPGIGYDYWGQGTQVTVSS
polyreactivity (PSR sort gate): low polyreactivity

QVQLVESGGGLVQAGGSLRLSCAASGGTFAIYVKGWYRLAPGKERELVAAITRVGSTYADSVKGRFTISRDNAKNTVYLQMNSLKPEDTAVYYCAAVSGVRSGPWRYDYLGQGTQVTVSS
polyreactivity (PSR sort gate): high polyreactivity

QVLLVESGGGLVQAGGSLRLSCAASGRTSFQYAMGWYSQAPGTDRELVAALSWSGGATVYADSVKGRFTISRDNAKNTDYLQMNSLKPEDTAVYYCAKRRRLDQNTCYGLDYWGQGTQGTVSS
polyreactivity (PSR sort gate): low polyreactivity

QVQLVESGGGLVQAGGSLRLSCAASGRIFGSYVMGWYRQAPGKERELVAAISIGGITKYADSVKGRFTISRDNAKNTVYLQMNSLKPEDTAVYYCAARLVRRYDYDYWGQGTQVTVSS
polyreactivity (PSR sort gate): high polyreactivity

QVQHVESGGGLDQAGGSLRLSCAASGRTFSYYTMGWYRQAPGKERELVARISNRGTNTYYADSVKGRFTISRDNSKNTVYLQMNSLKPEDTAVYYCAKYYYTSIVGYDSWGQGTQVTVSS
polyreactivity (PSR sort gate): low polyreactivity

QVQLVESGGGLVQAGGSLRLSCAASGRTLYVYAMGWYRQAPGKEREFVAAINSSGDSTYYADSVKGRFTISRDNAKNTVYLQMNSLKPEDTAVYYCAAAGYYGYGYDYWGQGTQVTVSS
polyreactivity (PSR sort gate): low polyreactivity

QVLLQESGGGLVQAGGSLRLSCAASGNIFSAGGMGWYRQAPVNERELVAGIGTGTSTNYADSVKGRFTISRDNSKNTVYLQMNSMKPEDTAVYYCAAAYYSGLSHWYWGQGTQVTVSS
polyreactivity (PSR sort gate): low polyreactivity

QVQLVESGGGLVQAGGSLRISCAASGRIFPFYAMGWYRQAPGKDRELVAAIRSGGGSTYYADSVKGRFTISRDNAKKTVYLQRNSLKPEDTAVYYCTARGRLGSAGRYNYWGQGTQVTVSS
polyreactivity (PSR sort gate): high polyreactivity

QVQLVESGGGLVQAGGSLRLSCAASGSIFGFYAMGWYRQAPGKERELVAAISSDGGSTYYADSVKGRFTISRDNAKNTVYLQMNSLKPEDTAVYYCAAAHGSIYDSTYYEYYYWGQGTQVTVSS
polyreactivity (PSR sort gate): low polyreactivity

QVQLVESGGGLVQAGGSLRLSCAASGSTFWSYAMGWYRQAPGKERELVAAITSGGRTYYADSVKGRFTISRDNAKNTVYLQMNSLKPEDTAVYYCNAVVRHTYRRFDYWGQGTQVTVSS
polyreactivity (PSR sort gate): high polyreactivity

QVQLVESGGGLVQAGGSLRLSCAASGRIFQWYAMGWYRQAPGKERELVATISDGDSTNYADSVKGRFTISRDNAKNTVYFQMNSLKPEDTAVYYCAALDIYYDSYYWYDYWGQGTQVTVSS
polyreactivity (PSR sort gate): high polyreactivity

QVQLVESGGGLVQAGGSLRLSCAASGFIFVIYAKGWYRQAPGKERELVARISFRSGRTYYADSVKGRFTISRDNAKNTVYLQMNSLKPEDTAVYYCNAVLYGQYKYDYWGQGTQVTVSS
polyreactivity (PSR sort gate): high polyreactivity

QVQLVQSGGGLVQAGGSLRLSCAASGRTFGVYAMGWYRQAPGKERELVAAITWSGGSTYYADSVKGRFTISRDNAKNTVYLQMNSLKPEDTAVYYCAALTWLSGVKMGYWGQGTQVTVSS
polyreactivity (PSR sort gate): high polyreactivity

QVQLVESGGGLVQAGGSLRLSCAASGSTFRWYAMGWYRQAPGKERELVAAIRRIGSRTYADSVKGRFTISRDNAKNTVYLQMNSLKPEDTAVYYCATRYKYTGYDYWGQGTQVTVSS
polyreactivity (PSR sort gate): high polyreactivity

QVQLVESGGGLVQAGGSLRLSCAASGRIFYWYAMAWYRQAPGKERELVAAITSGGSTYYADSVKGRFTISRDNAKNTVYLQMNSLKPEDTAVYYCAADLYYWGDYDYWGQGTQVTVSS
polyreactivity (PSR sort gate): low polyreactivity

QVQLVESGGGLVQAGGSLRLSCAASGRTFKVNAMGWYRQAPGKERELVAAITYSGGGTYYADSVKGRFTISRDNAKNTVYLQMNSLKPEDTAVYYCAAPVYTWYHRYDYWGQGTQVTVSS
polyreactivity (PSR sort gate): high polyreactivity

QVQLVESGGGLVQAGGSLRLSCAASGRNFGLYAMGWYRQAPGTERELVAAISWGGGRTYYADSVKGRFTISRDNAKNTVYLQMNSLKPEDTAVYYCNAVYSPRYYVGGYDYWGQGTQVTVSS
polyreactivity (PSR sort gate): high polyreactivity

QVQLQESGGGLVQAGGTITLGYDMGWYRQAPGKEREFVAGIDTGAITYYADSVKGRFTNSRDNAKNTVYLQMNSLKPEDTAVYYCAAILTHTYAHSYWGQGTQVTVSS
polyreactivity (PSR sort gate): high polyreactivity

QVQLVESVGGLLQAGGSLRLSCAASGSIFDVYTMGWYRQAPGKVRELFAAINTGGGSTYYADSVKGRFTISRDNAKNTVYCQMNSLKPEVTAVYYCAASVYHYGPLYYWGQGTQVTVSS
polyreactivity (PSR sort gate): low polyreactivity

QVQLVESGGGLVQSGGSLRLICAASGRNYAMGWYRQAPGKERELVARITKSGTSTYYADSVKGRFTISRDNAKNTVYLQMNSLKPEDTAVYYCNARYWGYWGDHYDYWGQGTQVTVSS
polyreactivity (PSR sort gate): high polyreactivity

QVQLVESGGGLVQAGGSLRLSCAASGRIFHRNAMGWYRPAPGKERELVATIRGNGGSTYYADSVKGRFTISRDNAKNTVYLQMNSLKPEDTAVYYCARDAQGYGGWWTYSRFYSWGQGTQVTVSS
polyreactivity (PSR sort gate): high polyreactivity
